In the NTF2 design screens of Basanta et al. (2020):

Experiment: protease stability score; higher = more stable; yeast display proteolysis, trypsin and chymotrypsin;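 note: log10 excess protease needed over predicted unfolded state with 0 meaning unfolded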

Sequence	protease stability score
DEDEVEKIATTIKDVIQEGNFRQLEKLADPNAKVVIGDKTYRGRDAMRHAAQLLQQRADHITVQTVHVHGNKVEAHLRATVNGRDVHFVVKVTLENGRIKNMKIEYTDEDKFKEMVG	1.31
DEHKEASEYIEQAEENMRDNNFRRMMQNADENVKLKYGDKELEGREQVESWANTVQSRADHFEIRVESMTVTGDHISIVLSHIVRHDGRRVKQKIIIIFKVHNGRARIEHIEFK	0.044
DSRELDEFIHKFAQVIRKGNPRDAMKNVDKDARAVVGNKHINGRDQFHKWIEDLNKTIDHFEIVHVEVEGDRALMDVQVNINGKTRRIRLTAHVHNGRFKDVRVDPENERKLNQ	0.011
DDSLEKELEDIMRTGNFEELVKNADKDARAQYGNRTYHGREDAKEAAHQFRKHVDSIQIDSIHRHNGHMEVDMQVNINGRNVRATMTIEAHNGRVKQFRVEVTDEEFHKTLHRLLE	0.929
DQRDLEHVNHVLQTGDPDQFRDLVDPNARIRVGDKTIHGRENVLTKYRRLMEQADHLQIDSIRNHGEFVVFDFRMTVNGRQVDAEVNIHVKDGQIKEIEIRFRSEEQEDRWRKQAD	1.42
EDNRLQEIMEKFIRLMQTGDDHTAANLFDEDARIEYGDHSIRGREEFQKYAKELKDRVDHFDVQTIKNRGDEVHIDVNIHVDGKRVRVNMVVQAENGKVKKLRLDPEVVRHMEK	1.3
DEEQAKKMEHDAKNNNFEKMAEQADPNATAQYGDHRVRGRHEVIDLITHWIEKIDRIEVDSIRVHNGRLEMHFTFEVDGVQVDVVMKAELQNGSLKVLVVTATSEEQQKRLKQAEG	0.234
DEKRQAKEYVKHFDEVIETNDPDQLNELMDKDVRLDIGETKVSGRDDAKKWAKELVDQIDHVRVNVRKVDVQGDTIKVEVDIQIQYNGRHEQRVLHFTAVLSNGRAKIKRFTVE	0.559
DTRVARLVQEIMENVKKGSKEHLKQMVDPNVKIRVGDKTFHGREDFVTHLMDERKEARVDYHLKDVKDEGDKAFADVVQHVDKNGQPRNRHFIIDARAENGRLKEMRIENTK	-0.3
DETAQKVANQFFEALKNGDPDQVRRLLDKNATVRIGEWQVHGREQASKDVHQNKQHAEYDWRIRSVKVTGNKVDIDAEVTYQHNGEPSRRQMVVNVVVTNGKIQDIHVRDEQ	1.43
DDDDNKTAQDRMRTNDFTTLARHAPEDAHAQIGDTTVTGRRKLEEIVVKFREQVDHMEIKDIRTSGEKVFIDLHATFDGHTVRLVIEVEVKNGRLQKLFFRVTDPERAKEIVEQLD	0.362
DETTEASKLLHRINTAWQTNDPDQFQEQFDENARAKVGDKTVHGRKNMNELLKRLVENVDHIDVQVVDFRVDGDKLVIYFRVQNEHNGKHEHDQYAIWAVDRNGHVRAIEWHES	0.272
DEDKLTDKAHQIIRALETGDPDQIRNLAPPNVRFDYGDKRYHGREKAEERAKRERENIDHMEIKDFDVQGNKIQIRAVVEHNGRSREFVVTFEQNNGTLRFARMQSK	-0.342
DEKAKHMVERFFTALTTGDEQKLRDNVDPNAKFHYGDKRISGMEDNARTLVEEQKEIRFQYDRMHLDAKGDTIDVKLKYIADVNGKPIDVHVDVKFQFQNGRVQSISERIDPRVEKEMHS	0.162
DDKHIQTQAERIAKALQTGDPDKFKNEMRKDVQVDVGDKRLHGREEVAKWMEDKHKRADRITYDSVEASGDKITMTVVIQINGRKKHFQFEATQSNGKIVHARERDQ	-0.393
DNTHLRMMEQLLKNRSTGDERKVRENADKHVKIDVGDKRLHGREHLQKQQESERTQADVEIQVQTIHDHNGQIVMQFEITVNVNGRPERDTWTLVAEADNGRLKKLSLDLDPDKLKTMES	0.327
DEENIEQLRRMMTNLNTGDFHKMVNLMDPNARVRYGDRQISGREEVRKEWEKIVKSMHIERQVRSIEDHDGRAYADVELRVNVDGRPFSVRFTVVVEVRNGRVKFLEVRVPEEFMEKLDS	1.07
DDDNFRRFKDLQHAENRGDPDRVMELVDPNAHIRVGNTTLKGTKQIKDWVEHILKNWDEQLHSVDEKFQGNHITARYQMEINVNGEPEHFDVTQMATLDNGKIQNRVVRVSEDDLENIER	-0.247
DETKVKKLAETVIKILFSGDKKTAKDLLKPNVKFEALDVELHGPDQVRKYYDKVKKHGAEMHVQRNEVKGNTAEVEYVLKVGGTEIKVKATLYVKDEKVDKAEVNNSEEYKKYVQKG	-0.018
DQEEVEQAKKFVEAQKSGDPDQLNDLADPNVELEIGDQELHGREDLHDWANHQNKHMRMEVRDVKAQDKPNHVEVHIRFVINVNGKPRDTTVEVDFSAENGHIKKIKFQIDHHELRKLEK	-0.154
DQKKQQEVLEQWSKNDPRDLRKQADKDVRVQIGDTTYHGREDAQDALYTLAKRVDHFKYQHIETEGDHIRVDLVVNVNGREYQLTFEAQFHNGRLKTLEMQVRDEDQHKRLQEQLD	-0.22
EEELEEQLHRLLQLIREGNEHKVKEQMDPNVKVVYGDKEYKGRDEVETYLEEVINHWRVNFRVKHITVKGDKVDMKAEASYTHNGRPVNRKLTINAEIHNGRFKTLEFKWDG	0.214
DEHSIAEQLAHQFIRAQESGDPDQVDRLADENVRVQIGDKQVKGRDVVRRTMQTWRDRSDHITARLRDVSVRNGQINLLIELDYRQNGQTQHHTLVIVAEVHNGQVRMVQIEIR	-0.221
DERMDDTLRRLVERGDFHKIAENADPNVRMQVGNKVFHGREEVRRAAERWQNQVDHYQVDSVRVHNGHVSAHVQATVNGQRIRFTIKIDVQGDKVQRMEIEFTSEEQKKLQDEAVE	1.41
DQHLEDVARQMQEVEKHNDPEEVSKQFDPNAHARYGDKEVHGHHQFKEQAKRRQTKAQFKVDKYSVSVDNGRVSMSRQYVNDHNGKPRTQTDTAHMEVHDGRITDVKYQSTS	-0.139
